Measured values reported in the supplement of paper PMC5998384.

Assays:
[1] = tested on: HeLa Kyoto; test: melting temperature (median over replicates), in situ; higher = more thermally stable
[2] = tested on: HeLa Kyoto; test: solubility change mitosis vs G1/S (difference of NP-40 vs SDS log2 ratios) (log2 ratio difference); higher = more soluble in mitosis
[3] = tested on: HeLa Kyoto; test: solubility in G1/S (NP-40 vs SDS abundance) (log2 ratio); higher = more soluble; settings: cell cycle stage: G1/S
[4] = tested on: HeLa Kyoto; test: thermal stability score vs G1/S (z-score of summed log2 fold changes over temperatures); higher = more thermally stable than in G1/S
[5] = cell cycle stage: early G1 (4.5 h after nocodazole release)
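For melting temperature (median over replicates), in situ in this document: HeLa Kyoto cells synchronized by double thymidine or nocodazole block, proteins quantified by TMT10plex mass spectrometry, three independent biological replicates.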
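For solubility change mitosis vs G1/S (difference of NP-40 vs SDS log2 ratios) in this document: synchronized HeLa Kyoto cells (double thymidine block for G1/S, nocodazole release for mitosis), protein amounts in NP-40 versus SDS lysates quantified by mass spectrometry, three biological replicates.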
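For solubility in G1/S (NP-40 vs SDS abundance) in this document: HeLa Kyoto cells arrested at G1/S by double thymidine block, proteins quantified by TMT10plex mass spectrometry in mild NP-40 versus SDS extracts, three biological replicates.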
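For thermal stability score vs G1/S (z-score of summed log2 fold changes over temperatures) in this document: synchronized HeLa Kyoto cells, proteins quantified by TMT10plex mass spectrometry, three biological replicates, mitosis taken 0.5 h after nocodazole release, G1/S directly after double thymidine block.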

For “MNGKRPAEPGPARVGKKGKKEVMAEFSDAVTEETLKKQVAEAWSRRTPFSHEVIVMDMDPFLHCVIPNFIQSQDFLEGLQKELMNLDFHEKYNDLYKFQQSDDLKKRREPHISTLRKILFEDFRSWLSDISKIDLESTIDMSCAKYEFTDALLCHDDELEGRRIAFILYLVPPWDRSMGGTLDLYSIDEHFQPKQIVKSLIPSWNKLVFFEVSPVSFHQVSEVLSEEKSRLSISGWFHGPSLTRPPNYFEPPIPRSPHIPQDHEILYDWINPTYLDMDYQVQIQEEFEESSEILLKEFLKPEKFTKVCEALEHGHVEWSSRGPPNKRFYEKAEESKLPEILKECMKLFRSEALFLLLSNFTGLKLHFLAPSEEDEMNDKKEAETTDITEEGTSHSPPEPENNQMAISNNSQQSNEQTDPEPEENETKKESSVPMCQGELRHWKTGHYTLIHDHSKAEFALDLILYCGCEGWEPEYGGFTSYIAKGEDEELLTVNPESNSLALVYRDRETLKFVKHINHRSLEQKKTFPNRTGFWDFSFIYYE [OGFOD1]”, which melting temperature ([1]; cell cycle stage: G1/S) is on record?
Its melting temperature is 53.1 °C.

What about the melting temperature ([1]; cell cycle stage: mitosis) of the same sequence?
Its melting temperature is 53.6 °C.

And the “solubility change mitosis (log2)” value [2]?
Its value is -0.151.

And the “solubility in G1/S (log2)” value [3]?
Its value is -0.0197.

And the thermal stability score [4, 5]?
Its thermal stability score is 1.93.

What about the thermal stability score ([4]; cell cycle stage: mitosis) of the same sequence?
Its thermal stability score is 0.186.

For “MNGRADFREPNAEVPRPIPHIGPDYIPTEEERRVFAECNDESFWFRSVPLAATSMLITQGLISKGILSSHPKYGSIPKLILACIMGYFAGKLSYVKTCQEKFKKLENSPLGEALRSGQARRSSPPGHYYQKSKYDSSVSGQSSFVTSPAADNIEMLPHYEPIPFSSSMNESAPTGITDHIVQGPDPNLEESPKRKNITYEELRNKNRESYEVSLTQKTDPSVRPMHERVPKKEVKVNKYGDTWDE [OCIAD1]”, which melting temperature ([1]; cell cycle stage: G1/S) is on record?
Its melting temperature is 55.9 °C.

And the melting temperature ([1]; cell cycle stage: mitosis)?
The melting temperature was 53.1 °C.

And the “solubility change mitosis (log2)” value [2]?
The value was 0.225.

And the “solubility in G1/S (log2)” value [3]?
The value was 0.219.

And the thermal stability score [4, 5]?
The thermal stability score was -1.09.

And the thermal stability score ([4]; cell cycle stage: mitosis)?
The thermal stability score was -4.47.

With “MNHSERFVFIAEWYDPNASLLRRYELLFYPGDGSVEMHDVKNHRTFLKRTKYDNLHLEDLFIGNKVNVFSRQLVLIDYGDQYTARQLGSRKEKTLALIKPDAISKAGEIIEIINKAGFTITKLKMMMLSRKEALDFHVDHQSRPFFNELIQFITTGPIIAMEILRDDAICEWKRLLGPANSGVARTDASESIRALFGTDGIRNAAHGPDSFASAAREMELFFPSSGGCGPANTAKFTNCTCCIVKPHAVSEGLLGKILMAIRDAGFEISAMQMFNMDRVNVEEFYEVYKGVVTEYHDMVTEMYSGPCVAMEIQQNNATKTFREFCGPADPEIARHLRPGTLRAIFGKTKIQNAVHCTDLPEDGLLEVQYFFKILDN [NME7]” as the sequence, how does the melting temperature ([1]; cell cycle stage: G1/S) read?
Its melting temperature is 48.9 °C.

And the melting temperature ([1]; cell cycle stage: mitosis)?
Its melting temperature is 48.8 °C.

And the “solubility change mitosis (log2)” value [2]?
Its value is 0.0736.

What about the “solubility in G1/S (log2)” value [3] of the same sequence?
Its value is -0.32.

And the thermal stability score [4, 5]?
The thermal stability score was 0.587.

What about the thermal stability score ([4]; cell cycle stage: mitosis) of the same sequence?
Its thermal stability score is 0.668.

Which results are given for “MNIRNARPEDLMNMQHCNLLCLPENYQMKYYFYHGLSWPQLSYIAEDENGKIVGYVLAKMEEDPDDVPHGHITSLAVKRSHRRLGLAQKLMDQASRAMIENFNAKYVSLHVRKSNRAALHLYSNTLNFQISEVEPKYYADGEDAYAMKRDLTQMADELRRHLELKEKGRHVVLGAIENKVESKGNSPPSSGEACREEKGLAAEDSGGDSKDLSEVSETTESTDVKDSSEASDSAS [NAA10]”?
melting temperature ([1]; cell cycle stage: G1/S): 53.4 °C; melting temperature ([1]; cell cycle stage: mitosis): 53.1 °C; solubility change mitosis (log2) [2]: -0.0427; solubility in G1/S (log2) [3]: 0.263; thermal stability score [4, 5]: -0.13; thermal stability score ([4]; cell cycle stage: mitosis): -1.02

“MNIVVEFFVVTFKVLWAFVLAAARWLVRPKEKSVAGQVCLITGAGSGLGRLFALEFARRRALLVLWDINTQSNEETAGMVRHIYRDLEAADAAALQAGNGEEEILPHCNLQVFTYTCDVGKRENVYLTAERVRKEVGEVSVLVNNAGVVSGHHLLECPDELIERTMMVNCHAHFWTTKAFLPTMLEINHGHIVTVASSLGLFSTAGVEDYCASKFGVVGFHESLSHELKAAEKDGIKTTLVCPYLVDTGMFRGCRIRKEIEPFLPPLKPDYCVKQAMKAILTDQPMICTPRLMYIVTFMKSILPFEAVVCMYRFLGADKCMYPFIAQRKQATNNNEAKNGI [RDH10]” was tested. Which melting temperature ([1]; cell cycle stage: G1/S) did it give?
Its melting temperature is 53.4 °C.

And the melting temperature ([1]; cell cycle stage: mitosis)?
The melting temperature was 52.9 °C.

What about the “solubility change mitosis (log2)” value [2] of the same sequence?
The value was -0.104.

And the “solubility in G1/S (log2)” value [3]?
Its value is -0.308.

What about the thermal stability score [4, 5] of the same sequence?
Its thermal stability score is -3.18.

And the thermal stability score ([4]; cell cycle stage: mitosis)?
The thermal stability score was -3.77.
